Data: paper PMC7192615, “Structure specific recognition of telomeric repeats containing RNA by the RGG-box of hnRNPA1”

Key:
[1] = molecular target: T1, RGG-box (isolated) (UniProt P09651-2 197-249); test: ITC; 100 mM KCl; ITC/CD: 20 mM Tris pH 8.0, 100 mM KCl, 25 C; NMR: 10 mM potassium phosphate pH 6.5, 100 mM KCl, 298 K (10% D2O for HSQC); details: protein: recombinant; tags: GST removed by TEV; intramolecular parallel G4
[2] = molecular target: UP1 (UniProt P09651-2 1-196); test: as above; details: protein: recombinant, tags: C-terminal 6xHis
[3] = molecular target: T2, UP1+RGG (UniProt P09651-2 1-249); test: as above; details: protein: recombinant, tags: C-terminal 6xHis
[4] = molecular target: T1, RGG-box (isolated); test: NMR HSQC CSP titration (global fit); 100 mM KCl; ITC/CD: 20 mM Tris pH 8.0, 100 mM KCl, 25 C; NMR: 10 mM potassium phosphate pH 6.5, 100 mM KCl, 298 K (10% D2O for HSQC); details: protein: recombinant; tags: GST removed by TEV; intramolecular parallel G4
[5] = molecular target: T2, UP1+RGG; test: ITC; 100 mM KCl, 20% PEG 200; ITC/CD: 20 mM Tris pH 8.0, 100 mM KCl, 25 C; NMR: 10 mM potassium phosphate pH 6.5, 100 mM KCl, 298 K (10% D2O for HSQC); details: protein: recombinant; tags: C-terminal 6xHis; intramolecular parallel G4
[6] = parallel G4 dimer of 2 strands, two loops
[7] = parallel G4 tetramer of 4 strands, no loops

T2 sequence (P09651 1-249): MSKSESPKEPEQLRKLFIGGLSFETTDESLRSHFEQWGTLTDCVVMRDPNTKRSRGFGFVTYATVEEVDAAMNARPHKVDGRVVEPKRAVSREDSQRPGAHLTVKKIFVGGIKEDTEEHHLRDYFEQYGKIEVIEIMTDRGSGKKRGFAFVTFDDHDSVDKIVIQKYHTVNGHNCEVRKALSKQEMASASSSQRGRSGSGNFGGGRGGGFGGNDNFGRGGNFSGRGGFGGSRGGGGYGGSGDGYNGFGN
Chain of UP1 (P09651 1-196): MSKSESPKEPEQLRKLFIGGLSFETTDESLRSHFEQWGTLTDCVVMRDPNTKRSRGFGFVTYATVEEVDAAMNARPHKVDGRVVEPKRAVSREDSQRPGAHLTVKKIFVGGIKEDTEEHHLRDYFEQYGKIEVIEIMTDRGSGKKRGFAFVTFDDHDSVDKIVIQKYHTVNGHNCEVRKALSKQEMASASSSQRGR
T1 sequence (P09651 197-249): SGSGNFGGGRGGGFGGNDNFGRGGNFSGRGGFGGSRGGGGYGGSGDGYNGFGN

## UUAGGGUUAGGGUUAGGGUUAGGG (structured_RNA) [TERRA-24]
[1]
  Kd: 9000 ± 4300 nM
[2]; intramolecular parallel G4
  Kd: 1710 ± 170 nM
[3]; intramolecular parallel G4
  Kd: 920 ± 170 nM
[4]
  Kd: 11000 ± 1500 nM
[5]
  Kd: 3000 ± 550 nM

## UUAGGGUUAGGG (structured_RNA) [TERRA-12]
[2]; [6]
  Kd: 2040 ± 470 nM
[3]; [6]
  Kd: 1070 ± 140 nM

## GAGUAACCCGUAUCGUGA (ssRNA) [ssRNA-18]
[2]; single strand, 18 nt
  Kd: 2370 ± 490 nM
[3]; single strand, 18 nt
  Kd: 2280 ± 260 nM

## UUAGGG (structured_RNA) [TERRA-6]
[2]; [7]
  Kd: 2020 ± 170 nM
[3]; [7]
  Kd: 2380 ± 230 nM
